Experimental data taken from ChEMBL document CHEMBL5257037, “Side Chain Cyclized Aromatic Amino Acids: Great Tools as Local Constraints in Peptide and Peptidomimetic Design” (J Med Chem, 2016).

Substrate: CC[C@H](C)[C@H](NC(=O)[C@H](Cc1cnc[nH]1)NC(=O)[C@H](Cc1ccccc1)NC(=O)OCc1ccccc1)C(=O)O
Assay: Binding affinity to angiotensin-converting enzyme (unknown origin) assessed as Km
Details: Homo sapiens

B1: Angiotensin-converting enzyme (Homo sapiens), P12821 (protein)
chain: MGAASGRRGPGLLLPLPLLLLLPPQPALALDPGLQPGNFSADEAGAQLFAQSYNSSAEQVLFQSVAASWAHDTNITAENARRQEEAALLSQEFAEAWGQKAKELYEPIWQNFTDPQLRRIIGAVRTLGSANLPLAKRQQYNALLSNMSRIYSTAKVCLPNKTATCWSLDPDLTNILASSRSYAMLLFAWEGWHNAAGIPLKPLYEDFTALSNEAYKQDGFTDTGAYWRSWYNSPTFEDDLEHLYQQLEPLYLNLHAFVRRALHRRYGDRYINLRGPIPAHLLGDMWAQSWENIYDMVVPFPDKPNLDVTSTMLQQGWNATHMFRVAEEFFTSLELSPMPPEFWEGSMLEKPADGREVVCHASAWDFYNRKDFRIKQCTRVTMDQLSTVHHEMGHIQYYLQYKDLPVSLRRGANPGFHEAIGDVLALSVSTPEHLHKIGLLDRVTNDTESDINYLLKMALEKIAFLPFGYLVDQWRWGVFSGRTPPSRYNFDWWYLRTKYQGICPPVTRNETHFDAGAKFHVPNVTPYIRYFVSFVLQFQFHEALCKEAGYEGPLHQCDIYRSTKAGAKLRKVLQAGSSRPWQEVLKDMVGLDALDAQPLLKYFQPVTQWLQEQNQQNGEVLGWPEYQWHPPLPDNYPEGIDLVTDEAEASKFVEEYDRTSQVVWNEYAEANWNYNTNITTETSKILLQKNMQIANHTLKYGTQARKFDVNQLQNTTIKRIIKKVQDLERAALPAQELEEYNKILLDMETTYSVATVCHPNGSCLQLEPDLTNVMATSRKYEDLLWAWEGWRDKAGRAILQFYPKYVELINQAARLNGYVDAGDSWRSMYETPSLEQDLERLFQELQPLYLNLHAYVRRALHRHYGAQHINLEGPIPAHLLGNMWAQTWSNIYDLVVPFPSAPSMDTTEAMLKQGWTPRRMFKEADDFFTSLGLLPVPPEFWNKSMLEKPTDGREVVCHASAWDFYNGKDFRIKQCTTVNLEDLVVAHHEMGHIQYFMQYKDLPVALREGANPGFHEAIGDVLALSVSTPKHLHSLNLLSSEGGSDEHDINFLMKMALDKIAFIPFSYLVDQWRWRVFDGSITKENYNQEWWSLRLKYQGLCPPVPRTQGDFDPGAKFHIPSSVPYIRYFVSFIIQFQFHEALCQAAGHTGPLHKCDIYQSKEAGQRLATAMKLGFSRPWPEAMQLITGQPNMSASAMLSYFKPLLDWLRTENELHGEKLGWPQYNWTPNSARSEGPLPDSGRVSFLGLDLDAQQARVGQWLLLFLGIALLVATLGLSQRLFSIRHRSLHRHSHGPQFGSEVELRHS
**Q.** With B1 as the protein, how does the Km read?
**A.** 0.01 µM
